Legend:
[1] = molecular target: transforming growth factor-β1 (TGF-β1) (UniProt P01137); assay: equilibrium or kinetic binding, not said which
[2] = molecular target: basic fibroblast growth factor (bFGF, FGF-2) (UniProt P09038); assay: equilibrium or kinetic binding, not said which
[3] = molecular target: platelet-derived growth factor-BB (PDGF-BB) (UniProt P01127); assay: equilibrium binding
[4] = molecular target: platelet-derived growth factor-BB (PDGF-BB) (UniProt P01127); assay: binding assay, method not restated
[5] = molecular target: transforming growth factor-β1 (TGF-β1) (UniProt P01137); assay: binding assay, method not restated
[6] = molecular target: vascular endothelial growth factor A (VEGF-A) (UniProt P15692); assay: binding assay, method not restated
[7] = molecular target: basic fibroblast growth factor (bFGF, FGF-2) (UniProt P09038); assay: binding assay, method not restated

Chain of transforming growth factor-β1 (TGF-β1) (P01137 279-390 limits assumed): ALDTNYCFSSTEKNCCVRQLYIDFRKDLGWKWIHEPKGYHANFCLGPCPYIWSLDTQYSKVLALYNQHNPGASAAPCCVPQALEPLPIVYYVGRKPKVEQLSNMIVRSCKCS
Chain of platelet-derived growth factor-BB (PDGF-BB) (P01127 82-190 limits assumed): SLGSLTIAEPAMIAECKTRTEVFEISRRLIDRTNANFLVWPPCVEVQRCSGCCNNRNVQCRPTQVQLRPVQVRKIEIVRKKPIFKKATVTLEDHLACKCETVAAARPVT
Chain of basic fibroblast growth factor (bFGF, FGF-2) (P09038 143-288 limits assumed): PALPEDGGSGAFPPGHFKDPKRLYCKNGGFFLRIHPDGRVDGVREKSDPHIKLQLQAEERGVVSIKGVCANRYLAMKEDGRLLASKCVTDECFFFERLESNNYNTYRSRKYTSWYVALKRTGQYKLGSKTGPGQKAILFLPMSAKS
Chain of vascular endothelial growth factor A (VEGF-A) (P15692 other isoform, or with tags, fused parts or gaps limits assumed): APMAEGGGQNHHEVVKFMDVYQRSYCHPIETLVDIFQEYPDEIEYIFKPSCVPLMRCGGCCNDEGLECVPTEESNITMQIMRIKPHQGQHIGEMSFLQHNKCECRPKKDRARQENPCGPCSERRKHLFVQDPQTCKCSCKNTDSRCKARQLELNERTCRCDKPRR

Kd [1]: 74 nM | Kd [2]: 58 nM | Kd [3]: 350 nM | Kd [4]: 100 nM | Kd [5]: 100 nM | Kd [6]: 100 nM | Kd [7]: 100 nM
Substance: IIICS, variably-spliced domain of fibronectin (from UniProt P02751 2083-2202)
